For experiment [1], the target named is T1, Met-Fc fusion protein (R&D Systems) labeled with Alexa 488 (UniProt P08581 25-932, Alexa 488 label).
T1 construct: Bought reagent; also called Met-Fc A488; soluble Met-Fc; not shown: Fc domain
Put plainly: flow cytometry, yeast display, after heating to varying temperatures. (In general: In flow cytometry, cells or beads pass a laser one at a time.)

For experiment [2], the target named is T2, human FGFR1 beta (IIIc)-Fc (R&D Systems) (human, UniProt P11362-14 22-285, limits assumed).
T2 construct: Bought reagent; also called FGFR1-Fc; soluble FGFR1-Fc; not shown: Fc domain, detected with anti-Human IgG
T2 sequence (looked up): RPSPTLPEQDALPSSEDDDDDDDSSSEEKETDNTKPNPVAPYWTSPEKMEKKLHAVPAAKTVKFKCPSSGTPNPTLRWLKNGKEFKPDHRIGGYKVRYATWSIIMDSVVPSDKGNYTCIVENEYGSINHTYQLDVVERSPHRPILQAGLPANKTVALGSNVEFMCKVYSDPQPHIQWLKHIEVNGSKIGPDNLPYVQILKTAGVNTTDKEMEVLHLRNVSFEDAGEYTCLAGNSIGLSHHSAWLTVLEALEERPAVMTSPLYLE
Kind of experiment: flow cytometry on yeast displaying the peptide, stained for c-myc and FGFR1-Fc. As to the method: FIG. 15. Non-binding of peptide artifacts to FGFR1-Fc. Yeast cells expressing RTTTS or HTTS peptides on their cell surface were incubated with 10 nM FGFR1-Fc. Cells were stained with fluorescent antibodies for expression (α-c-myc) and binding (α-FGFR1-Fc).
50,000 induced yeast cells were incubated with various concentrations of FGFR1-Fc in phosphate-buffered saline with 1 g/L BSA (PBSA) at room temperature. Cells were incubated in sufficiently large volumes to avoid ligand depletion and long enough times (typically 3 to 24 hours) to reach equilibrium. During the last 30 minutes of incubation, yeast cells were incubated with 1:2500 dilution of chicken anti-c-Myc (Invitrogen) in PBSA. Yeast were pelleted, washed, then incubated with 1:200 dilution of secondary antibodies on ice for 10 min: anti-Human IgG-FITC (Sigma Aldrich) against FGFR1-Fc and anti-chicken-IgY-PE (Santa Cruz Biotechnology) against anti-c-myc. Yeast were washed, pelleted, and resuspended in PBSA immediately before analysis by flow cytometry using EMD Millipore Guava EasyCyte. Flow cytometry data were analyzed using FlowJo (v7.6.1). Binding curves were plotted and Kd values were obtained using GraphPad Prism 6.

Experiment [3] deals with Met receptor on MDCK cells. Kind of experiment: cell-based or functional assay.
Chain of Met receptor on MDCK cells (Q75ZY9 whole entry): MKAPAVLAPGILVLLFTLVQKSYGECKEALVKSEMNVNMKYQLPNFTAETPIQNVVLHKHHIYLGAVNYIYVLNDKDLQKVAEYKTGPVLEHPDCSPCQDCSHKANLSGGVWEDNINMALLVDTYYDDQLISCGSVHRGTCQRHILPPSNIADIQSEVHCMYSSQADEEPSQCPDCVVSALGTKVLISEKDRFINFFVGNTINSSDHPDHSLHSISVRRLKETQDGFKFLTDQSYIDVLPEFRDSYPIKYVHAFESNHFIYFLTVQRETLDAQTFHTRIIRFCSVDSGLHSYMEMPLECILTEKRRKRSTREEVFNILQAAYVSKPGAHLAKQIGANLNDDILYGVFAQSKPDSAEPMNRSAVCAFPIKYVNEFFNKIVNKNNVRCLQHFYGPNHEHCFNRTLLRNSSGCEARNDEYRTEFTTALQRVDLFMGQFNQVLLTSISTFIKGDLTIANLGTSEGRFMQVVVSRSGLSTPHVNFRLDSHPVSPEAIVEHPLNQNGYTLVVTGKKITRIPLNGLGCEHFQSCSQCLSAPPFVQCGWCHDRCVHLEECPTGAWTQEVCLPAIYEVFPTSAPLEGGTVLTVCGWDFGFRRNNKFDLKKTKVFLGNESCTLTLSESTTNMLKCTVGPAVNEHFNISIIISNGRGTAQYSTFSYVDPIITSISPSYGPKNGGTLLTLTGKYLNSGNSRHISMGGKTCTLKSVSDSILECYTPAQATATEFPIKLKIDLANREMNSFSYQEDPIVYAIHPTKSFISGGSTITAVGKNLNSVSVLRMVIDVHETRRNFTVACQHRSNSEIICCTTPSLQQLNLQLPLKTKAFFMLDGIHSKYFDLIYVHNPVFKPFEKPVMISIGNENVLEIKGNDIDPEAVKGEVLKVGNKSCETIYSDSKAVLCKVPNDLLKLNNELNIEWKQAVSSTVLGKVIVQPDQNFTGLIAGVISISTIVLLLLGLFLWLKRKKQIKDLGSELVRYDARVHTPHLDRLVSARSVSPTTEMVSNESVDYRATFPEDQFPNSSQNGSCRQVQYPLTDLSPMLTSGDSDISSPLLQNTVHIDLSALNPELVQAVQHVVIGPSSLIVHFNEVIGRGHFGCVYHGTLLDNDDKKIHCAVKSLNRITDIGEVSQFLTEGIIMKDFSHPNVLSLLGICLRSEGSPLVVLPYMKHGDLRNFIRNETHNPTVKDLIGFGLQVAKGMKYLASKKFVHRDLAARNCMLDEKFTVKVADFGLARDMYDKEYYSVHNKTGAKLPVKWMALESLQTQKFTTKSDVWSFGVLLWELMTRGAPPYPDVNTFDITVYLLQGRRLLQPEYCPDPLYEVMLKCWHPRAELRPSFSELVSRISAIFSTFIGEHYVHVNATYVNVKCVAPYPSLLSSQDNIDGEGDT

Substitutions are numbered along the chain they refer to.

T1 sequence (P08581 25-932 limits assumed): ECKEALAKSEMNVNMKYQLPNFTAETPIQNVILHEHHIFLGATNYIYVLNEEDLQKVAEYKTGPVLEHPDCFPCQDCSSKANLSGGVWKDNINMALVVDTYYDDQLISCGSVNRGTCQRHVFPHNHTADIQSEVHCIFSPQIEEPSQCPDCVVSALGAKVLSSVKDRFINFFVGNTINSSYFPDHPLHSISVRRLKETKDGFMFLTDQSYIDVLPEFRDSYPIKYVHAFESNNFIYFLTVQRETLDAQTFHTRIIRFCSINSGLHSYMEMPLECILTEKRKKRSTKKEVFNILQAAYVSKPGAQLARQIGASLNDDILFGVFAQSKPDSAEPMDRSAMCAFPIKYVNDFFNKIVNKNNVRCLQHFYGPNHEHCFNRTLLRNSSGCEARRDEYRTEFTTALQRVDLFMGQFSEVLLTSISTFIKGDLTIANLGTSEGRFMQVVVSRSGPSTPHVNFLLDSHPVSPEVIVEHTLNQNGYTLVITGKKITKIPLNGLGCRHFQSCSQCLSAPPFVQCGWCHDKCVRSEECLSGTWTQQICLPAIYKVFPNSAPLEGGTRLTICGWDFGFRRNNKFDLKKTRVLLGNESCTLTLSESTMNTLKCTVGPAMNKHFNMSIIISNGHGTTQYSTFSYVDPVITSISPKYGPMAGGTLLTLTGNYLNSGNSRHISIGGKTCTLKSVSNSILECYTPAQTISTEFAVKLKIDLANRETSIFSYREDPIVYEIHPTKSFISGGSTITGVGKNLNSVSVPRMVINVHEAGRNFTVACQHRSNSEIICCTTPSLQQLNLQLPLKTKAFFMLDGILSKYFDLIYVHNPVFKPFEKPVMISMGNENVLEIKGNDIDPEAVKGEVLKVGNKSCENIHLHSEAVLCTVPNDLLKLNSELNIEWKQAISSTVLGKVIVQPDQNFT

B1: NK1 mutant M2.1 displayed on yeast (ligand)
chain: YAEGQRKRRNTIHEFKKSAKTTLIKIDPALKIKTEKVNTADQCANRCTRNKGLPFTCKAFVFDKARKQCLWFPFNSMSSGVKKEFGHEFDLYENKDYIRDCIIGKGRSYRGTVSITKSGIKCQPWSSMIPHEHSFLPSSYRGEDLQENYCRNPRGEEGGPWCFTSDPEVRYEVCDIPQCSEVE
notes: Yeast display fusion as for m10
For B1, in experiment [1], the binding result is “binds”.

B2: NK1 mutant M2.2 displayed on yeast (ligand)
chain: B1 chain with Q68R, K105N, Q146R
notes: as for B1
Turning to B2, the binding result in experiment [1] is “binds”.

B3: RTTTS peptide displayed on yeast (peptide)
peptide: RTTTS
notes: also called peptide artifact
For B3, in experiment [2], the binding result is on record as “no binding (tested: 10 nM FGFR1-Fc)”.

B4: HTTS peptide displayed on yeast (peptide)
peptide: HTTS
notes: also called peptide artifact
With B4, the binding result in experiment [2] was “no binding (tested: 10 nM FGFR1-Fc)”.

B5: Aras-4 (ligand)
chain: YAEGQGKRRNTIHEFKKSAKTTLIKIDPALRIKTEKANTADQCANRCTRSKGLPFTCKAFVFDKARKRCLWFPFNSMSSGVKKEFGHEFDLYENKAYIRDCIIGRGRNYRGTVSITKSGIKCQPWSAMIPHEHSFLPSSYRGEDLRENYCRNPRGEEGGPWCYTSDPEVRYEVCDIPQCSEVE
In the case of B5, the “inhibition of HGF-induced activation of Met, concentration against M2.2 D127A or NK1 N127A” value in experiment [3] is about 5 fold lower concentration.

The values are drawn from patent US20220023385A1 (Stanford University, published 2022).
